Data: publication PMC7382241 (2020)
Several values for one entry are separate records, joined by “and”; a condition that tells them apart may be missing. Equal entries are not always repeated.

B1: recombinant CEP250_(29.2) (residues 1,981 to 2,281) (domain or fragment)
chain: EQHLLEQAELSRSLEASTATLQASLDACQAHSRQLEEALRIQEGEIQDQDLRYQEDVQQLQQALAQRDEELRHQQEREQLLEKSLAQRVQENMIQEKQNLGQEREEEEIRGLHQSVRELQLTLAQKEQEILELRETQQRNNLEALPHSHKTSPMEEQSLKLDSLEPRLQRELERLQAALRQTEAREIEWREKAQDLALSLAQTKASVSSLQEVAMFLQASVLERDSEQQRLQDELELTRRALEKERLHSPGATSTAELGSRGEQGVQLGEVSGVEAEPSPDGMEKQSWRQRLEHLQQAVAR
B2: CEP250_(11.4) (residues 2,134 to 2,231) (domain or fragment)
chain: MEEQSLKLDSLEPRLQRELERLQAALRQTEAREIEWREKAQDLALSLAQTKASVSSLQEVAMFLQASVLERDSEQQRLQDELELTRRALEKERLHSPG

Molecular target: N-terminal AVI-tagged and biotinylated FKBP12 (human, UniProt P62942 1-108, biotin (biotinylated AVI tag))
Sequence (P62942 whole entry): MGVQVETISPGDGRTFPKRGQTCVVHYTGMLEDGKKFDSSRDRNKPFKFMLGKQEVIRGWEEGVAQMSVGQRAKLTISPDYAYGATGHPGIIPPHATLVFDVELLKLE
Test: SPR

Row | Binder | Kd
1 | B1 | 37.6 nM and 23.4 nM and 57.7 nM
2 | B2 | 32.5 nM and 32.7 nM and 41.2 nM
